Test results as given in patent US20260285971 (published 2026).

T1: human GPRC5D (human)
T1 chain: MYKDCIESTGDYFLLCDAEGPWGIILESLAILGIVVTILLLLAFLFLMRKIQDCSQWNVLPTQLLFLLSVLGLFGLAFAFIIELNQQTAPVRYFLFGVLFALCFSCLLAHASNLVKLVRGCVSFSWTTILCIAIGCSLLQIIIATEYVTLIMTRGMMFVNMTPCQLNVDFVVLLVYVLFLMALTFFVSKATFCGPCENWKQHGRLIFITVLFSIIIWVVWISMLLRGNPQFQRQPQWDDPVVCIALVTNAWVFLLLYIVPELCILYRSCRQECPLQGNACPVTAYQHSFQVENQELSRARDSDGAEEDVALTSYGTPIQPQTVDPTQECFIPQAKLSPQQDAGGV


What was measured:
human GPRC5D [1] = target: T1, human GPRC5D; test: FACS molp-8
human GPRC5D [2] = target: T1, human GPRC5D; test: FACS CHOK1-human GPRC5D
human GPRC5D [3] = target: T1, human GPRC5D; test: FACS NCI-H929
human GPRC5D [4] = target: T1, human GPRC5D; test: FACS molp-8
human GPRC5D [5] = target: T1, human GPRC5D; test: ELISA
human GPRC5D [6] = target: T1, human GPRC5D; test: FACS RPMI-8226
human GPRC5D [7] = target: T1, human GPRC5D; test: FACS NCI-H929
human GPRC5D [8] = target: T1, human GPRC5D; test: FACS RPMI-8226
human GPRC5D [9] = target: T1, human GPRC5D; test: FACS RPMI-8226
human GPRC5D [10] = target: T1, human GPRC5D; test: FACS molp-8
human GPRC5D [11] = target: T1, human GPRC5D; test: FACS NCI-H929
human GPRC5D [12] = target: T1, human GPRC5D; test: FACS molp-8
human GPRC5D [13] = target: T1, human GPRC5D; test: FACS RPMI-8226
human GPRC5D [14] = target: T1, human GPRC5D; test: FACS molp-8
human GPRC5D [15] = target: T1, human GPRC5D; test: FACS NCI-H929
human GPRC5D [16] = target: T1, human GPRC5D; test: FACS NCI-H929
human GPRC5D [17] = target: T1, human GPRC5D; test: ELISA
human GPRC5D [18] = target: T1, human GPRC5D; test: ELISA
human GPRC5D [19] = target: T1, human GPRC5D; test: ELISA
human GPRC5D [20] = target: T1, human GPRC5D; test: FACS RPMI-8226

| Binder | EC50 (human GPRC5D [1]) [nM] | EC50 (human GPRC5D [2]) [µM] | EC50 (human GPRC5D [3]) [nM] | EC50 (human GPRC5D [4]) [µM] | EC50 (human GPRC5D [5]) [nM] | EC50 (human GPRC5D [6]) [µM] | EC50 (human GPRC5D [7]) [µM] | EC50 (human GPRC5D [20]) [µM] | further results |
| --- | --- | --- | --- | --- | --- | --- | --- | --- | --- |
| MCARH109-scFv-huFc (antibody, V domains shown) VH: QVQLVESGGGLVHPGGSLRLSCAASGFTFRSHSMNWVRQAPGKGLEWVSSISSDSTYTYYADSVKGRFTISRDNAKNSLYLQMNSLRAEDTAVYYCARSGGQWKYYDYWGQGTLVTVSS VL: SSELTQDPAVSVALGQTVRITCQGDSLRSYYASWYQQKPGQAPVLVIYGKNNRPSGIPDRFSGSSSGNTASLTITGAQAEDEADYYCNSRDSSGNPPVVFGGGTKLTVL | 3.23 | 0.000286 | 2.45 |  |  |  |  |  |  |
| HAB01-H7 (antibody, V domains shown) VH: EVQLVESGGGLVQPGGSLRLSCAASGYAGGIAYMAWFRQAPGKGREGVALIATSGTTSYADSVKGRFTISRDGAKNSVYLQMNSLRAEDTAVYYCAAKSRLGWPGLETSQFKYWGQGTMVTVSS |  |  |  | 0.00076 | 0.0264 | 0.0037 | 0.000916 |  |  |
| JNJ7564-hIgG1 (antibody, V domains shown) VH: QVQLVQSGAEVKKPGASVKVSCKASGYSFTGYTMNWVRQAPGQGLEWMGLINPYNSDTNYAQKLQGRVTMTTDTSTSTAYMELRSLRSDDTAVYYCARVALRVALDYWGQGTLVTVSS VL: DIQMTQSPSSLSASVGDRVTITCKASQNVATHVGWYQQKPGKAPKRLIYSASYRYSGVPSRFSGSGSGTEFTLTISNLQPEDFATYYCQQYNRYPYTFGQGTKLEIK |  |  |  | 0.0269 | 0.0379 | ~5.46 | 0.0179 |  | EC50 (human GPRC5D [8]): ~1360 µM; EC50 (human GPRC5D [9]): 0.0734 µM; EC50 (human GPRC5D [10]): 0.0459 µM; EC50 (human GPRC5D [11]): 0.00697 µM; EC50 (human GPRC5D [12]): 0.0344 µM; EC50 (human GPRC5D [13]): ~635 µM; EC50 (human GPRC5D [14]): 0.0413 µM; EC50 (human GPRC5D [15]): 0.0256 µM; EC50 (human GPRC5D [16]): 0.00988 µM; EC50 (human GPRC5D [17]): 0.0559 nM; EC50 (human GPRC5D [18]): 0.0211 nM; EC50 (human GPRC5D [19]): 0.028 nM |
| HAB06-H5 (designed binder) EVQLVESGGGLVQPGGSLRLSCAASGFTFSSAWMYWFRQAPGKGLEWVSHIDPRGGSTYYADSVKGRFTISRDNAKNTLYLQMNSLRAEDTAVYYCAKDLRGLGRGQGTQVTVSS | 0.178 | 0.000241 | 0.38 |  |  |  |  | 0.000387 |  |
| Lab06-huFc (designed binder) QVQLVESGGGLVQPGGSLRLSCTASGFTFSSAWMYWFRQAPGKGLEWVSHIDPRGGSTYYADSVKGRFTISRDNAKNTLYLQMRSLKSEDTAVYYCAKDLRGLGRGQGTQVTVSS | 0.132 | 0.00022 | 0.273 |  |  |  |  | 0.000261 |  |
| HAB06-H1 (designed binder) EVQLVESGGGLVQPGGSLRLSCAASGFTFSSAWMYWFRQAPGKGLEWVSHIDPRGGSTYYADSVKGRFTISRDNSKNTLYLQMNSLRAEDTAVYYCAKDLRGLGRGQGTMVTVSS | 0.14 | 0.000324 | 0.166 |  |  |  |  | 0.000406 |  |
| Lab05-huFc (antibody, V domains shown) VH: QVQLVESGGGLVQPGGSLRLSCAASGILVSAYVMAWYRQPPGKQRDLVARLSTDGRTTYADSVKGRFTISKDNAKSTLYLQMNTLKSEDTAVYYCYAERSRGHWGQGTQVTVSS | 0.0616 | 0.000279 | 0.111 |  |  |  |  | 0.0316 |  |
| HAB05-H3 (antibody, V domains shown) VH: EVQLVESGGGLVQPGGSLRLSCAASGILVSAYVMAWYRQAPGKQRVLVSRLSTDGRTTYADSVKGRFTISKDNAKSTLYLQMNSLRAEDTAVYYCYAERSRGHWGQGTMVTVSS | 0.0433 | 0.000249 | 0.0861 |  |  |  |  | 0.00012 |  |
| HAB05-H2 (antibody, V domains shown) VH: EVQLVESGGGLVQPGGSLRLSCAASGILVSAYVMAWYRQAPGKQRVLVSRLSTDGRTTYADSVKGRFTISKDNAKNTLYLQMNSLRAEDTAVYYCYAERSRGHWGQGTMVTVSS | 0.0839 | 0.000514 | 0.202 |  |  |  |  | 0.000141 |  |
| 5F11-hIgG1 (antibody, V domains shown) VH: EVQLVESGGGLVQPGRSLKLSCAASGFSFSNYGMAWVRQAATKGLEWVASISTGGGNTYYRDSVKGRFIVSRDNAKNTQYLQMDSLRSEDTATYYCTRHDRGGLYWGQGVMVTVSS VL: DIVMTQAPLSVSVTPGESASISCRSSKSLLHSNGITYVYWYFQKPGKSPQVLIYRMSNLASGVPDRFSGSGSETDFTLKISRVEAEDVGIYHCGQLLENPYTFGAGTELELK |  |  |  | 0.00292 | 0.0498 | 0.0265 | 0.00305 |  | EC50 (human GPRC5D [8]): 0.0187 µM; EC50 (human GPRC5D [9]): 0.00707 µM; EC50 (human GPRC5D [10]): 0.0126 µM; EC50 (human GPRC5D [11]): 0.00196 µM; EC50 (human GPRC5D [12]): 0.00368 µM; EC50 (human GPRC5D [13]): 0.0121 µM; EC50 (human GPRC5D [14]): 0.00564 µM; EC50 (human GPRC5D [15]): 0.0029 µM; EC50 (human GPRC5D [16]): 0.00269 µM; EC50 (human GPRC5D [17]): 0.0659 nM; EC50 (human GPRC5D [18]): 0.0371 nM; EC50 (human GPRC5D [19]): 0.0295 nM |
